These results are taken from the supplement of paper PMC5998384.

In data set [1] the test system is HeLa Kyoto. Briefly: solubility in G1/S (NP-40 vs SDS abundance) (log2 ratio); higher = more soluble. Particulars: cell cycle stage: G1/S.
The subject of data set [2] is HeLa Kyoto. The data set is described as follows: melting temperature (median over replicates), in situ; higher = more thermally stable.
The subject of data set [3] is HeLa Kyoto. The data set is described as follows: solubility change mitosis vs G1/S (difference of NP-40 vs SDS log2 ratios) (log2 ratio difference); higher = more soluble in mitosis.
Data set [4] relates to HeLa Kyoto. Briefly: thermal stability score vs G1/S (z-score of summed log2 fold changes over temperatures); higher = more thermally stable than in G1/S.
[5] abbreviates: cell cycle stage: early G1 (4.5 h after nocodazole release).
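Throughout, for melting temperature (median over replicates), in situ: HeLa Kyoto cells synchronized by double thymidine or nocodazole block, proteins quantified by TMT10plex mass spectrometry, three independent biological replicates.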
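Throughout, for solubility change mitosis vs G1/S (difference of NP-40 vs SDS log2 ratios): synchronized HeLa Kyoto cells (double thymidine block for G1/S, nocodazole release for mitosis), protein amounts in NP-40 versus SDS lysates quantified by mass spectrometry, three biological replicates.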
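Throughout, for solubility in G1/S (NP-40 vs SDS abundance): HeLa Kyoto cells arrested at G1/S by double thymidine block, proteins quantified by TMT10plex mass spectrometry in mild NP-40 versus SDS extracts, three biological replicates.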
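Throughout, for thermal stability score vs G1/S (z-score of summed log2 fold changes over temperatures): synchronized HeLa Kyoto cells, proteins quantified by TMT10plex mass spectrometry, three biological replicates, mitosis taken 0.5 h after nocodazole release, G1/S directly after double thymidine block.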

In the case of “MAPGCKTELRSVTNGQSNQPSNEGDAIKVFVRIRPPAERSGSADGEQNLCLSVLSSTSLRLHSNPEPKTFTFDHVADVDTTQESVFATVAKSIVESCMSGYNGTIFAYGQTGSGKTFTMMGPSESDNFSHNLRGVIPRSFEYLFSLIDREKEKAGAGKSFLCKCSFIEIYNEQIYDLLDSASAGLYLREHIKKGVFVVGAVEQVVTSAAEAYQVLSGGWRNRRVASTSMNRESSRSHAVFTITIESMEKSNEIVNIRTSLLNLVDLAGSERQKDTHAEGMRLKEAGNINRSLSCLGQVITALVDVGNGKQRHVCYRDSKLTFLLRDSLGGNAKTAIIANVHPGSRCFGETLSTLNFAQRAKLIKNKAVVNEDTQGNVSQLQAEVKRLKEQLAELASGQTPPESFLTRDKKKTNYMEYFQEAMLFFKKSEQEKKSLIEKVTQLEDLTLKKEKFIQSNKMIVKFREDQIIRLEKLHKESRGGFLPEEQDRLLSELRNEIQTLREQIEHHPRVAKYAMENHSLREENRRLRLLEPVKRAQEMDAQTIAKLEKAFSEISGMEKSDKNQQGFSPKAQKEPCLFANTEKLKAQLLQIQTELNNSKQEYEEFKELTRKRQLELESELQSLQKANLNLENLLEATKACKRQEVSQLNKIHAETLKIITTPTKAYQLHSRPVPKLSPEMGSFGSLYTQNSSILDNDILNEPVPPEMNEQAFEAISEELRTVQEQMSALQAKLDEEEHKNLKLQQHVDKLEHHSTQMQELFSSERIDWTKQQEELLSQLNVLEKQLQETQTKNDFLKSEVHDLRVVLHSADKELSSVKLEYSSFKTNQEKEFNKLSERHMHVQLQLDNLRLENEKLLESKACLQDSYDNLQEIMKFEIDQLSRNLQNFKKENETLKSDLNNLMELLEAEKERNNKLSLQFEEDKENSSKEILKVLEAVRQEKQKETAKCEQQMAKVQKLEESLLATEKVISSLEKSRDSDKKVVADLMNQIQELRTSVCEKTETIDTLKQELKDINCKYNSALVDREESRVLIKKQEVDILDLKETLRLRILSEDIERDMLCEDLAHATEQLNMLTEASKKHSGLLQSAQEELTKKEALIQELQHKLNQKKEEVEQKKNEYNFKMRQLEHVMDSAAEDPQSPKTPPHFQTHLAKLLETQEQEIEDGRASKTSLEHLVTKLNEDREVKNAEILRMKEQLREMENLRLESQQLIEKNWLLQGQLDDIKRQKENSDQNHPDNQQLKNEQEESIKERLAKSKIVEEMLKMKADLEEVQSALYNKEMECLRMTDEVERTQTLESKAFQEKEQLRSKLEEMYEERERTSQEMEMLRKQVECLAEENGKLVGHQNLHQKIQYVVRLKKENVRLAEETEKLRAENVFLKEKKRSES [KIF15]”, the “solubility in G1/S (log2)” value in the data set on HeLa Kyoto [1] turned out to be 0.087. Moreover, the results for the melting temperature with HeLa Kyoto [2] (cell cycle stage: G1/S) and in the data set on HeLa Kyoto [2] (cell cycle stage: mitosis) were 48.4 °C and 49.4 °C, respectively. For the same sequence, in the data set on HeLa Kyoto [3], the “solubility change mitosis (log2)” value is -0.0831. The thermal stability score was determined as 0.584 in the data set with HeLa Kyoto [4] (setting [5]) and 1.61 with HeLa Kyoto [4] (cell cycle stage: mitosis).
Take “MAPKFPDSVEELRAAGNESFRNGQYAEASALYGRALRVLQAQGSSDPEEESVLYSNRAACHLKDGNCRDCIKDCTSALALVPFSIKPLLRRASAYEALEKYPMAYVDYKTVLQIDDNVTSAVEGINRMTRALMDSLGPEWRLKLPSIPLVPVSAQKRWNSLPSENHKEMAKSKSKETTATKNRVPSAGDVEKARVLKEEGNELVKKGNHKKAIEKYSESLLCSNLESATYSNRALCYLVLKQYTEAVKDCTEALKLDGKNVKAFYRRAQAHKALKDYKSSFADISNLLQIEPRNGPAQKLRQEVKQNLH [TOMM34]”: the “solubility in G1/S (log2)” value in the data set on HeLa Kyoto [1] amounted to 0.584. Further, the melting temperature in the data set on HeLa Kyoto [2] (cell cycle stage: G1/S) was 47.4 °C; with HeLa Kyoto [2] (cell cycle stage: mitosis), 48.8 °C. Further, in the data set with HeLa Kyoto [3], the “solubility change mitosis (log2)” value came out at 0.108. The thermal stability score in the data set with HeLa Kyoto [4] (setting [5]) was 0.535; in the data set on HeLa Kyoto [4] (cell cycle stage: mitosis), 1.04.
As to “MAPNIYLVRQRISRLGQRMSGFQINLNPLKEPLGFIKVLEWIASIFAFATCGGFKGQTEIQVNCPPAVTENKTVTATFGYPFRLNEASFQPPPGVNICDVNWKDYVLIGDYSSSAQFYVTFAVFVFLYCIAALLLYVGYTSLYLDSRKLPMIDFVVTLVATFLWLVSTSAWAKALTDIKIATGHNIIDELPPCKKKAVLCYFGSVTSMGSLNVSVIFGFLNMILWGGNAWFVYKETSLHSPSNTSAPHSQGGIPPPTGI [SYPL1]”, the “solubility in G1/S (log2)” value in the data set on HeLa Kyoto [1] was -0.227. Also, the results for the melting temperature in the data set with HeLa Kyoto [2] (cell cycle stage: G1/S) and with HeLa Kyoto [2] (cell cycle stage: mitosis) were 56.1 °C and 56.9 °C, respectively. Also, the “solubility change mitosis (log2)” value with HeLa Kyoto [3] was found to be 0.0843. Further, the thermal stability score in the data set with HeLa Kyoto [4] (setting [5]) is -3.54; in the data set on HeLa Kyoto [4] (cell cycle stage: mitosis), -3.06.
As to “MAPPSVFAEVPQAQPVLVFKLTADFREDPDPRKVNLGVGAYRTDDCHPWVLPVVKKVEQKIANDNSLNHEYLPILGLAEFRSCASRLALGDDSPALKEKRVGGVQSLGGTGALRIGADFLARWYNGTNNKNTPVYVSSPTWENHNAVFSAAGFKDIRSYRYWDAEKRGLDLQGFLNDLENAPEFSIVVLHACAHNPTGIDPTPEQWKQIASVMKHRFLFPFFDSAYQGFASGNLERDAWAIRYFVSEGFEFFCAQSFSKNFGLYNERVGNLTVVGKEPESILQVLSQMEKIVRITWSNPPAQGARIVASTLSNPELFEEWTGNVKTMADRILTMRSELRARLEALKTPGTWNHITDQIGMFSFTGLNPKQVEYLVNEKHIYLLPSGRINVSGLTTKNLDYVATSIHEAVTKIQ [GOT1]”, the “solubility in G1/S (log2)” value with HeLa Kyoto [1] turned out to be 0.34. The melting temperature was found to be 58.1 °C in the data set on HeLa Kyoto [2] (cell cycle stage: G1/S) and 64.1 °C in the data set with HeLa Kyoto [2] (cell cycle stage: mitosis). In addition, the “solubility change mitosis (log2)” value in the data set on HeLa Kyoto [3] was -0.116. Moreover, the thermal stability score was -1.19 in the data set on HeLa Kyoto [4] (setting [5]) and -1.58 in the data set with HeLa Kyoto [4] (cell cycle stage: mitosis).
